The target of assay [1] is αVβ3 headpiece (soluble, disulfide-linked: αv headpiece residues 1-594 with M400C and β3 headpiece residues 1-472 with Q267C) (UniProt P06756). The assay is described as follows: fluorescence anisotropy competition.
Target sequence in this assay (P06756 other isoform, or with tags, fused parts or gaps M400C Q267C, chain 1 of 2): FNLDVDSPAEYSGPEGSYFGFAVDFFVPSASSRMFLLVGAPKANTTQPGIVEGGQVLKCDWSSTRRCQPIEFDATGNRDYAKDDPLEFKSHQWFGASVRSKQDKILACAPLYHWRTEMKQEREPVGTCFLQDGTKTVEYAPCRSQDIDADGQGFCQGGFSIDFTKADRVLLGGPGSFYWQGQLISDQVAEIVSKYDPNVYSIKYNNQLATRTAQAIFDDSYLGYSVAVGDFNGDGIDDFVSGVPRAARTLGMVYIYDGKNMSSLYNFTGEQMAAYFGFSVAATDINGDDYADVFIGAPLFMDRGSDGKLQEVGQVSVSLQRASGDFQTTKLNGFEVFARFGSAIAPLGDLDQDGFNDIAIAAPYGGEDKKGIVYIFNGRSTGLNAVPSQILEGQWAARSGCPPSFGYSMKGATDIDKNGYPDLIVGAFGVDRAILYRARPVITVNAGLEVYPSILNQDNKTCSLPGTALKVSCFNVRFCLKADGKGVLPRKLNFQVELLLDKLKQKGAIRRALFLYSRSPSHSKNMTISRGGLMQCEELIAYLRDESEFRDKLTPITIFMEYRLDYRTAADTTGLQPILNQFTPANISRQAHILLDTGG
Target sequence in this assay (P05106 27-498 Q293C, chain 2 of 2, further chain): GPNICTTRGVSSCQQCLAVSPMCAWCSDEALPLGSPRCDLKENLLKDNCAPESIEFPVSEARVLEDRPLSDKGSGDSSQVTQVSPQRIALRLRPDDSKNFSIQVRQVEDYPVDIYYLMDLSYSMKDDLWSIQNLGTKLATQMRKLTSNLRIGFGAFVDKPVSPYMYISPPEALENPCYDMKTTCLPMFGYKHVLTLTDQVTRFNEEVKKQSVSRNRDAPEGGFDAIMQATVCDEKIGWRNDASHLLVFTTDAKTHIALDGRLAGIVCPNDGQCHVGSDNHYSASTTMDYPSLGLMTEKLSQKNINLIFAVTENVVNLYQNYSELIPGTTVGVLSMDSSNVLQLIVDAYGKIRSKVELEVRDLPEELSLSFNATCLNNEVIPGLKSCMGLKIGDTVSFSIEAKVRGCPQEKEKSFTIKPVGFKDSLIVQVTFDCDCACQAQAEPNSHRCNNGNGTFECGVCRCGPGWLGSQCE
The target in assay [2] is αVβ6 headpiece (soluble, disulfide-linked: αv headpiece residues 1-594 with M400C and β6 headpiece residues 1-474 with I270C) (UniProt P06756). The assay is described as follows: fluorescence anisotropy; pH 5.0.
Target sequence in this assay (P06756 other isoform, or with tags, fused parts or gaps M400C I270C, chain 1 of 2): as the sequence (P06756 other isoform, or with tags, fused parts or gaps M400C Q267C, chain 1 of 2) above
Target sequence in this assay (P18564 other isoform, or with tags, fused parts or gaps M400C I270C, chain 2 of 2, further chain): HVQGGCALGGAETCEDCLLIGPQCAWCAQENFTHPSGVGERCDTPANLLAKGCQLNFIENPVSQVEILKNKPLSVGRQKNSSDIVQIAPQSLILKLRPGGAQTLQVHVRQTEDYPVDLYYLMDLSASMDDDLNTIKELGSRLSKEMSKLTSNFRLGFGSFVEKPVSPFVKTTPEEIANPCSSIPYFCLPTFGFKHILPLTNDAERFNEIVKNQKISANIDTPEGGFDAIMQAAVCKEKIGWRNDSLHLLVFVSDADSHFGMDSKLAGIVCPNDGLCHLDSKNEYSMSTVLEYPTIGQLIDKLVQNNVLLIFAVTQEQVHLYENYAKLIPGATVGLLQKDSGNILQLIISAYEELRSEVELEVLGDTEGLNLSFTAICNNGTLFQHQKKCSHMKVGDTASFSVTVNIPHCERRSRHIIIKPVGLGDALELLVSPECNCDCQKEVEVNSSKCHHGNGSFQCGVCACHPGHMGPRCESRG
Assay [3] shares this target. The experiment in a line: fluorescence anisotropy; pH 6.0.
Target sequence in this assay (P06756 other isoform, or with tags, fused parts or gaps M400C I270C, chain 1 of 2): as the sequence (P06756 other isoform, or with tags, fused parts or gaps M400C Q267C, chain 1 of 2) above
Target sequence in this assay (P18564 other isoform, or with tags, fused parts or gaps M400C I270C, chain 2 of 2, further chain): as the sequence (P18564 other isoform, or with tags, fused parts or gaps M400C I270C, chain 2 of 2, further chain) above
Assay [4] has the same target. The assay is described as follows: fluorescence anisotropy; pH 7.0.
Target sequence in this assay (P06756 other isoform, or with tags, fused parts or gaps M400C I270C, chain 1 of 2): as the sequence (P06756 other isoform, or with tags, fused parts or gaps M400C Q267C, chain 1 of 2) above
Target sequence in this assay (P18564 other isoform, or with tags, fused parts or gaps M400C I270C, chain 2 of 2, further chain): as the sequence (P18564 other isoform, or with tags, fused parts or gaps M400C I270C, chain 2 of 2, further chain) above
Assay [5] has the same target. The assay is described as follows: fluorescence anisotropy; pH 8.0.
Target sequence in this assay (P06756 other isoform, or with tags, fused parts or gaps M400C I270C, chain 1 of 2): as the sequence (P06756 other isoform, or with tags, fused parts or gaps M400C Q267C, chain 1 of 2) above
Target sequence in this assay (P18564 other isoform, or with tags, fused parts or gaps M400C I270C, chain 2 of 2, further chain): as the sequence (P18564 other isoform, or with tags, fused parts or gaps M400C I270C, chain 2 of 2, further chain) above
Assay [6] shares this target. The experiment in a line: fluorescence anisotropy; pH 9.0.
Target sequence in this assay (P06756 other isoform, or with tags, fused parts or gaps M400C I270C, chain 1 of 2): as the sequence (P06756 other isoform, or with tags, fused parts or gaps M400C Q267C, chain 1 of 2) above
Target sequence in this assay (P18564 other isoform, or with tags, fused parts or gaps M400C I270C, chain 2 of 2, further chain): as the sequence (P18564 other isoform, or with tags, fused parts or gaps M400C I270C, chain 2 of 2, further chain) above
The target of assay [7] is αVβ3 headpiece (soluble, disulfide-linked: αv headpiece residues 1-594 with M400C and β3 headpiece residues 1-472 with Q267C) (UniProt P06756). The assay is described as follows: fluorescence anisotropy, competition with FITC-GRGDLGRL on αVβ3 headpiece.
Target sequence in this assay (P06756 other isoform, or with tags, fused parts or gaps M400C Q267C M400C Q267C, chain 1 of 2): as the sequence (P06756 other isoform, or with tags, fused parts or gaps M400C Q267C, chain 1 of 2) above
Target sequence in this assay (chain, as listed by the source M400C Q267C M400C Q267C, chain 2 of 2): as the sequence (P05106 27-498 Q293C, chain 2 of 2, further chain) above
In assay [8] the target is αVβ6 headpiece (soluble, disulfide-linked: αv headpiece residues 1-594 with M400C and β6 headpiece residues 1-474 with I270C) (UniProt P06756). The assay is described as follows: fluorescence anisotropy, competition with FITC-GRGDLGRL on αVβ6 headpiece.
Target sequence in this assay (P06756 other isoform, or with tags, fused parts or gaps M400C I270C M400C I270C, chain 1 of 2): as the sequence (P06756 other isoform, or with tags, fused parts or gaps M400C Q267C, chain 1 of 2) above
Target sequence in this assay (chain, as listed by the source M400C I270C M400C I270C, chain 2 of 2): as the sequence (P18564 other isoform, or with tags, fused parts or gaps M400C I270C, chain 2 of 2, further chain) above
The target is the same in assay [9]. The assay is described as follows: competitive fluorescence anisotropy on αVβ6 headpiece.
Target sequence in this assay (P06756 other isoform, or with tags, fused parts or gaps M400C I270C M400C I270C, chain 1 of 2): as the sequence (P06756 other isoform, or with tags, fused parts or gaps M400C Q267C, chain 1 of 2) above
Target sequence in this assay (chain, as listed by the source M400C I270C M400C I270C, chain 2 of 2): as the sequence (P18564 other isoform, or with tags, fused parts or gaps M400C I270C, chain 2 of 2, further chain) above

The source of these data is patent publication US20250206802A1.

In turn, “GRGDSP (SEQ ID NO: 72) peptide of fibronectin” had a Kd in [1] of 1.6 µM.

In the case of “FITC-GRGDLGRL (SEQ ID NO: 68), FITC-pro-TGF-β3 peptide”, the dissociation constant Kd in assay [2] was 3.81 µM; in assay [3], 2 µM; in [4], 0.212 µM; in assay [5], 0.0846 µM; in assay [6], 0.0274 µM.

In turn, GRGDLGRLK [nonapeptide containing RGD from pro-TGF-β3, … (SEQ ID NO: 75)] came in with a fold lower affinity than for αVβ6 in assay [7] of 1000 fold. Besides, the Kd in [8] stood at 0.0085 µM.

As to HGRGD [TGF-β3 undecapeptide truncated from the C-terminus until Leu-244 is removed], the step-wise drop in affinity (fold, against the peptide one residue longer) in [9] came out at 10 fold.

Consider HGRGDLGR [TGF-β3 undecapeptide truncated from the C-terminus until Leu-247 is removed], for which the step-wise drop in affinity (fold, against the peptide one residue longer) in assay [9] was determined as 10 fold.
